Results taken from article PMC8948145, “Piperonal synthase from black pepper (Piper nigrum) synthesizes a phenolic aroma compound, piperonal, as a CoA-independent catalysis” (Applied Biological Chemistry, 2022).

Tested on: O=C(O)/C=C/c1ccc2c(c1)OCO2
Test: GC-MS quantitation of piperonal, Michaelis-Menten fit
Assay type: biochemical, Piper nigrum
Conditions: 50 µM to 1.6 mM substrate; no ATP, CoA-SH or NAD+; pH of the kinetic assay not printed in main text

## PnPNS (piperonal synthase; PnMCHL, 3,4-methylenedioxycinnamic acid hydratase-lyase) (Piper nigrum)
  Km: 317.2 µM
  kcat: 2.7 s⁻¹
